Laboratory results from patent publication US20190359687A1 (Bayer, published 2019).

B1: TPP-8798 FVIII-scFv fusion protein (other)
chain: DIQLTQSPSFLSASVGDRVTITCRASSSVRYIYWFQQKPGKAPKLLIYATSFRQSGVPSRFSGSGSGTEYTLTISSLQPEDFATYYCHQRNSFPYTFGQGTKLEIKGGGGSGGGGSGGGGSGGGGSEVQLVQSGAEVKKPGASVKVSCKASGYTFTTYAIHWVRQAPGQGLEWMGYINPSSGYTRYNPKFKGRVTMTRDKSTSTAYMELRSLRSDDTAVYYCWTGTRDYWGQGTTVTVSSGGGSGGGGSGLVPRGSGGGSGGGGSGATRRYYLGAVELSWDYMQSDLGELPVDARFPPRVPKSFPFNTSVVYKKTLFVEFTDHLFNIAKPRPPWMGLLGPTIQAEVYDTVVITLKNMASHPVSLHAVGVSYWKASEGAEYDDQTSQREKEDDKVFPGGSHTYVWQVLKENGPMASDPLCLTYSYLSHVDLVKDLNSGLIGALLVCREGSLAKEKTQTLHKFILLFAVFDEGKSWHSETKNSLMQDRDAASARAWPKMHTVNGYVNRSLPGLIGCHRKSVYWHVIGMGTTPEVHSIFLEGHTFLVRNHRQASLEISPITFLTAQTLLMDLGQFLLFCHISSHQHDGMEAYVKVDSCPEEPQLRMKNNEEAEDYDDDLTDSEMDVVRFDDDNSPSFIQIRSVAKKHPKTWVHYIAAEEEDWDYAPLVLAPDDRSYKSQYLNNGPQRIGRKYKKVRFMAYTDETFKTREAIQHESGILGPLLYGEVGDTLLIIFKNQASRPYNIYPHGITDVRPLYSRRLPKGVKHLKDFPILPGEIFKYKWTVTVEDGPTKSDPRCLTRYYSSFVNMERDLASGLIGPLLICYKESVDQRGNQIMSDKRNVILFSVFDENRSWYLTENIQRFLPNPAGVQLEDPEFQASNIMHSINGYVFDSLQLSVCLHEVAYWYILSIGAQTDFLSVFFSGYTFKHKMVYEDTLTLFPFSGETVFMSMENPGLWILGCHNSDFRNRGMTALLKVSSCDKNTGDYYEDSYEDISAYLLSKNNAIEPRSFSQNPPVLKRHQREITRTTLQSDQEEIDYDDTISVEMKKEDFDIYDEDENQSPRSFQKKTRHYFIAAVERLWDYGMSSSPHVLRNRAQSGSVPQFKKVVFQEFTDGSFTQPLYRGELNEHLGLLGPYIRAEVEDNIMVTFRNQASRPYSFYSSLISYEEDQRQGAEPRKNFVKPNETKTYFWKVQHHMAPTKDEFDCKAWAYFSDVDLEKDVHSGLIGPLLVCHTNTLNPAHGRQVTVQEFALFFTIFDETKSWYFTENMERNCRAPCNIQMEDPTFKENYRFHAINGYIMDTLPGLVMAQDQRIRWYLLSMGSNENIHSIHFSGHVFTVRKKEEYKMALYNLYPGVFETVEMLPSKAGIWRVECLIGEHLHAGMSTLFLVYSNKCQTPLGMASGHIRDFQITASGQYGQWAPKLARLHYSGSINAWSTKEPFSWIKVDLLAPMIIHGIKTQGARQKFSSLYISQFIIMYSLDGKKWQTYRGNSTGTLMVFFGNVDSSGIKHNIFNPPIIARYIRLHPTHYSIRSTLRMELMGCDLNSCSMPLGMESKAISDAQITASSYFTNMFATWSPSKARLHLQGRSNAWRPQVNNPKEWLQVDFQKTMKVTGVTTQGVKSLLTSMYVKEFLISSSQDGHQWTLFFQNGKVKVFQGNQDSFTPVVNSLDPPLLTRYLRIHPQSWVHQIALRMEVLGCEAQDLY
notes: The entry is the mature protein; mostly a 2 chain molecule; also called BDD-N scFv; PPB 6705
B2: TPP-9711 FVIII-scFv fusion protein (other)
chain: ATRRYYLGAVELSWDYMQSDLGELPVDARFPPRVPKSFPFNTSVVYKKTLFVEFTDHLFNIAKPRPPWMGLLGPTIQAEVYDTVVITLKNMASHPVSLHAVGVSYWKASEGAEYDDQTSQREKEDDKVFPGGSHTYVWQVLKENGPMASDPLCLTYSYLSHVDLVKDLNSGLIGALLVCREGSLAKEKTQTLHKFILLFAVFDEGKSWHSETKNSLMQDRDAASARAWPKMHTVNGYVNRSLPGLIGCHRKSVYWHVIGMGTTPEVHSIFLEGHTFLVRNHRQASLEISPITFLTAQTLLMDLGQFLLFCHISSHQHDGMEAYVKVDSCPEEPQLRMKNNEEAEDYDDDLTDSEMDVVRFDDDNSPSFIQIRSVAKKHPKTWVHYIAAEEEDWDYAPLVLAPDDRSYKSQYLNNGPQRIGRKYKKVRFMAYTDETFKTREAIQHESGILGPLLYGEVGDTLLIIFKNQASRPYNIYPHGITDVRPLYSRRLPKGVKHLKDFPILPGEIFKYKWTVTVEDGPTKSDPRCLTRYYSSFVNMERDLASGLIGPLLICYKESVDQRGNQIMSDKRNVILFSVFDENRSWYLTENIQRFLPNPAGVQLEDPEFQASNIMHSINGYVFDSLQLSVCLHEVAYWYILSIGAQTDFLSVFFSGYTFKHKMVYEDTLTLFPFSGETVFMSMENPGLWILGCHNSDFRNRGMTALLKVSSCDKNTGDYYEDSYEDISAYLLSKNNAIEPRSFSQNGGGGSTGGTGGSSGGGTGSGGGGTGGSGGTDIQLTQSPSFLSASVGDRVTITCRASSSVRYIYWFQQKPGKAPKLLIYATSFRQSGVPSRFSGSGSGTEYTLTISSLQPEDFATYYCHQRNSFPYTFGQGTKLEIKGGGGSGGGGSGGGGSGGGGSEVQLVQSGAEVKKPGASVKVSCKASGYTFTTYAIHWVRQAPGQGLEWMGYINPSSGYTRYNPKFKGRVTMTRDKSTSTAYMELRSLRSDDTAVYYCWTGTRDYWGQGTTVTVSSGGGGDENQSPRSFQKKTRHYFIAAVERLWDYGMSSSPHVLRNRAQSGSVPQFKKVVFQEFTDGSFTQPLYRGELNEHLGLLGPYIRAEVEDNIMVTFRNQASRPYSFYSSLISYEEDQRQGAEPRKNFVKPNETKTYFWKVQHHMAPTKDEFDCKAWAYFSDVDLEKDVHSGLIGPLLVCHTNTLNPAHGRQVTVQEFALFFTIFDETKSWYFTENMERNCRAPCNIQMEDPTFKENYRFHAINGYIMDTLPGLVMAQDQRIRWYLLSMGSNENIHSIHFSGHVFTVRKKEEYKMALYNLYPGVFETVEMLPSKAGIWRVECLIGEHLHAGMSTLFLVYSNKCQTPLGMASGHIRDFQITASGQYGQWAPKLARLHYSGSINAWSTKEPFSWIKVDLLAPMIIHGIKTQGARQKFSSLYISQFIIMYSLDGKKWQTYRGNSTGTLMVFFGNVDSSGIKHNIFNPPIIARYIRLHPTHYSIRSTLRMELMGCDLNSCSMPLGMESKAISDAQITASSYFTNMFATWSPSKARLHLQGRSNAWRPQVNNPKEWLQVDFQKTMKVTGVTTQGVKSLLTSMYVKEFLISSSQDGHQWTLFFQNGKVKVFQGNQDSFTPVVNSLDPPLLTRYLRIHPQSWVHQIALRMEVLGCEAQDLY
notes: The entry is the mature protein; also called PPB 7816

Key:
[1] = target: T1, Cynomolgus monkey glycophorin A on Cynomolgus monkey red blood cells (Cynomolgus monkey); experiment: partition to Cyno RBC, human HemA plasma, 120 min;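 note: FVIII fusion spiked at 1 IU/mL into RBC suspension at whole-blood density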
T1 construct: whole, on cells; also called Cyno GPA; Cyno RBC

[2] = target: T2, human glycophorin A on human red blood cells (human, UniProt P02724 20-150); experiment: partition to human RBC, vWF deficient plasma, 30 min
T2 construct: whole, on cells; also called human GPA; huGPA
T2 sequence (looked up): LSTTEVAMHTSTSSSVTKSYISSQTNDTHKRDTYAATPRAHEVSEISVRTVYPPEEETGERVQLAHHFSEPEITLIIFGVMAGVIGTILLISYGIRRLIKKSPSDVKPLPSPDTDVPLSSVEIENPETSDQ

[3] = target: T2, human glycophorin A on human red blood …; experiment: partition to human RBC, vWF deficient plasma, 60 min
[4] = target: T2, human glycophorin A on human red blood …; experiment: partition to human RBC, vWF deficient plasma, 15 min
[5] = target: T1, Cynomolgus monkey glycophorin A on …; experiment: partition to Cyno RBC, human HemA plasma, 15 min;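 note: FVIII fusion spiked at 1 IU/mL into RBC suspension at whole-blood density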
[6] = target: T1, Cynomolgus monkey glycophorin A on …; experiment: partition to Cyno RBC, human HemA plasma, 30 min;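 note: FVIII fusion spiked at 1 IU/mL into RBC suspension at whole-blood density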
Experimental: (§1) To evaluate partition to cynomolgus monkey or human red blood cells, whole blood was draw from Cynomolgus monkey or normal human volunteers in to anticoagulant with 4% sodium citrate (Sigma, St Louis, Mo.). The red blood cells were purified by layering the whole blood on to ficoll followed by low speed centrifugation. The supernatant containing plasma, platelets and white blood cells was discarded and the red blood cell pellet was resuspended in 10 pellet volumes of PBS (50 mM Phosphate buffer, pH7.4, 150 mM NaCl). The red blood cells were then pelleted by slow speed centrifugation and the red blood cells re-suspended in 10 volumes of PBS. This washing step was repeated 4 more times and the red blood cells finally resuspended in a volume of plasma from Hemophilia patients with less than 1% of normal levels of FVIII (GeorgeKing Bio-Medical, Overland Park, Kans.) to generate a total volume equal to the initial blood volume such that the RBC density was equal to that of normal whole blood. BDD and RBC targeted FVIII molecules were then spiked into RBC suspension in HemA plasma at 1 IU/mL, and incubated at room temperature for 2-3 hours with gentle rotation. […] An additional control was performed in which BDD or RBC targeted FVIII molecules were added at 11U/ml into the same human hemophilia A plasma and incubated for 5 minutes and 180 mins. These samples were used to determine the input FVIII activity in the presence of plasma which was used to calculate the percentage of the molecule that was bound to RBC. All plasma samples were then assayed together for FVIII activity using the Coatest SP assay (DiaPharma, Columbus, Ohio). The assay was performed following the manufacturer's instructions in a 96-well plate format. […] The plate was incubated at 37° C. for 10 minutes with shaking between each reagent addition.

[7] = target: T1, Cynomolgus monkey glycophorin A on …; experiment: partition to Cyno RBC, human HemA plasma, 5 min;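 note: FVIII fusion spiked at 1 IU/mL into RBC suspension at whole-blood density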
[8] = target: T2, human glycophorin A on human red blood …; experiment: partition to human RBC, vWF deficient plasma, 5 min
[9] = target: T3, glycophorin A peptide GP5 (human, biotin at the N-terminus); experiment: Octet, GP5 peptide on the probe, fusion protein in solution, 1:1 fit
T3 construct: Residues 42 to 61 of the human glycophorin A extracellular domain
T3 peptide: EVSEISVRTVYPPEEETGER

[10] = target: T1, Cynomolgus monkey glycophorin A on …; experiment: partition to Cyno RBC, human HemA plasma, 1 min;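 note: FVIII fusion spiked at 1 IU/mL into RBC suspension at whole-blood density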
Experimental: as §1

[11] = target: T1, Cynomolgus monkey glycophorin A on …; experiment: partition to Cyno RBC, human HemA plasma, 60 min;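 note: FVIII fusion spiked at 1 IU/mL into RBC suspension at whole-blood density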
[12] = target: T2, human glycophorin A on human red blood …; experiment: partition to human RBC, vWF deficient plasma, 1 min
[13] = target: T2, human glycophorin A on human red blood …; experiment: partition to human RBC, vWF deficient plasma, 120 min

Binder | % bound to Cyno RBC [1] | percentage bound to human RBC [2] | percentage bound to human RBC [3] | percentage bound to human RBC [4] | % bound to Cyno RBC [5] | % bound to Cyno RBC [6] | % bound to Cyno RBC [7] | percentage bound to human RBC [8] | Kd [9] | koff [9] | kon [9] | % bound to Cyno RBC [10] | % bound to Cyno RBC [11] | percentage bound to human RBC [12] | percentage bound to human RBC [13]
B1 | 2.9% | 95.7% | 95.8% | 95.2% | -7.8% | -8.7% | -21.9% | 92.5% | 4 nM | 0.00329 s⁻¹ | 823000 M⁻¹ s⁻¹ | 0% | -19.1% | 76.5% | 95.7%
B2 | 81.8% | 87% | 88.7% | 87% | 72.1% | 74.2% | 63% | 85.3% | – | – | – | 40.6% | 80.2% | 76.2% | 86.3%
